{"source": "patent US20240141071A1", "about": "(LAVA THERAPEUTICS N V, published 2024)", "key": {"[1]": {"target": "human CD123 expressed on cells (human, UniProt P26951 19-378)", "test": "cell-based or functional assay"}, "[2]": {"target": "T1, recombinant purified CD123-Fc fusion protein (Bio-Techne/R&D Systems) (human, UniProt P26951 19-305)", "T1 construct": "Bought; also called Fc-fusion of the CD123 antigen; recombinant CD123", "T1 sequence": "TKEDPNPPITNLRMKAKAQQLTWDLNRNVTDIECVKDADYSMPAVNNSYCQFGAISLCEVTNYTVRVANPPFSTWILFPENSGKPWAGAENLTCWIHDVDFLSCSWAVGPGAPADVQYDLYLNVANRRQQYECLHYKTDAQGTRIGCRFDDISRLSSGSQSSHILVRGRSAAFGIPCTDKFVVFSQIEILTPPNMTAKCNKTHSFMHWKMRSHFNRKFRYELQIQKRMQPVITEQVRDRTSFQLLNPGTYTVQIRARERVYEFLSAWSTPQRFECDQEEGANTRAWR", "test": "BLI, CD123-Fc on anti-human IgG Fc capture sensors; *low binding (>20 nM), one measurement only", "experimental": "To determine the kinetics of binding of humanized 1D2-5C8var1 variants to CD123, recombinant purified CD123-Fc fusion protein (Bio-Techne/R&D Systems) was loaded to a density of 1 nm onto anti-human IgG Fc Capture sensors (using a concentration of 5 μg/ml) for an Octet Red96e (Sartorius) instrument. Different sensors were then dipped in different concentrations of humanized 1D2-5C8var1 variants, starting at 50 nM and two-fold dilutions thereof; dilutions were made in 10× kinetic buffer (10×KB) provided by the supplier. From the obtained sensorgrams, the kinetic association- and dissociation rate constants were determined by curve fitting. The association- and dissociation rate constants, when fitting was possible, were used to calculate the affinity of the humanized 1D2-5C8var1 variants for binding to CD123. […] For reference, the non-humanized (parental) 1D2 was included in these experiments."}}, "data": [{"binder": "1D2-5C8var1(Y105F)-Fc (bispecific antibody, human IgG1, V domains shown) V domain 1: EVQLVESGGGLVQAGGSLRLSCAASGRTASSYVMGWFRQAPGKEREFVAVINWNGDSTYYTDSVKGRFAISRDNAKNTVYLQMNSLKPEDTAVYYCAADTRREWYRDGYWGPPARYEYDYRGQGTQVTVSS V domain 2: EVQLLESGGGSVQPGGSLRLSCAASGRPFSNYAMSWFRQAPGKEREFVSAISWSGGSTSYADSVKGRFTISRDNSKNTLYLQMNSLRAEDTAVYYCAAQFSGADFGFGRLGIRGYEYDYWGQGTQVTVSS", "values": [{"measurement": "EC50 of THP-1 lysis, donor nr. 2", "setting": "[1]", "value": 1, "unit": "pM"}, {"measurement": "EC50 of THP-1 target cell lysis by Vγ9Vδ2 T cells, 24 h", "setting": "[1]", "value": "1 to 3", "unit": "pM"}, {"measurement": "EC50 of THP-1 target cell lysis in THP-1/pDC/Vγ9Vδ2 T cell co-culture", "setting": "[1]", "value": "~1", "unit": "pM"}, {"measurement": "EC50 of pDC lysis relative to THP-1 cell lysis", "setting": "[1]", "value": "~10", "unit": "fold"}, {"measurement": "EC50 of pDC lysis, donor nr. 2", "setting": "[1]", "value": 11, "unit": "pM"}]}, {"binder": "humanized 1D2-5C8var1 variant with 1D2 var2 (SEQ ID NO:26) (bispecific antibody, See note of m19) EVQLVESGGGLVQPGGSLRLSCAASGRTASSYVMGWVRQAPGKEREWVSVINWNGDSTYYADSVKGRFTISRDNSKNTLYLQMNSLRAEDTAVYYCAADTRREWYRDGYWGPPARYEYDYRGQGTLVTVSSGGGGSEVQLLESGGGSVQPGGSLRLSCAASGRPFSNYAMSWFRQAPGKEREFVSAISWSGGSTSYADSVKGRFTISRDNSKNTLYLQMNSLRAEDTAVYYCAAQFSGADYGFGRLGIRGYEYDYWGQGTQVTVSSAAAEPEA", "values": [{"measurement": "Kd", "setting": "[2]", "value": 24.5, "unit": "nM"}]}, {"binder": "humanized 1D2-5C8var1 variant with 1D2 var6 (SEQ ID NO:30) (bispecific antibody, See note of m19) EVQLVESGGGLVQPGGSLRLSCAASGRTASSYVMGWVRQAPGKGLEWVSVINWNGDSTYYADSVKGRFTISRDNSKNTLYLQMNSLRAEDTAVYYCAADTRREWYRDGYWGPPARYEYDYRGQGTLVTVSSGGGGSEVQLLESGGGSVQPGGSLRLSCAASGRPFSNYAMSWFRQAPGKEREFVSAISWSGGSTSYADSVKGRFTISRDNSKNTLYLQMNSLRAEDTAVYYCAAQFSGADYGFGRLGIRGYEYDYWGQGTQVTVSSAAAEPEA", "values": [{"measurement": "Kd", "setting": "[2]", "value": 29.1, "unit": "nM"}]}, {"binder": "humanized 1D2-5C8var1 variant with 1D2 var8 (SEQ ID NO:32) (bispecific antibody, See note of m19) EVQLVESGGGLVQPGGSLRLSCAASGRTASSYVMSWFRQAPGKGLEWVAVINWNGDSTYYADSVKGRFTISRDNSKNTVYLQMNSLRAEDTAVYYCAADTRREWYRDGYWGPPARYEYDYRGQGTLVTVSSGGGGSEVQLLESGGGSVQPGGSLRLSCAASGRPFSNYAMSWFRQAPGKEREFVSAISWSGGSTSYADSVKGRFTISRDNSKNTLYLQMNSLRAEDTAVYYCAAQFSGADYGFGRLGIRGYEYDYWGQGTQVTVSSAAAEPEA", "values": [{"measurement": "Kd", "setting": "[2]", "value": 44.1, "unit": "nM"}]}]}
